Test results as given in paper PMC10055998.
Where two headings read alike, the source gives them in different places.

Legend:
[1] = molecular target: SV2C, the BoNT/A protein receptor, rat (rat (endogenous in primary rat spinal cord cells)) (UniProt Q9Z2I6)
[2] = molecular target: SV2C, the BoNT/A protein receptor, rat (rat (endogenous in primary rat spinal cord cells)) (UniProt Q9Z2I6); remark: listed apart in the source
[3] = molecular target: SV2C, the BoNT/A protein receptor, human (human (endogenous in hiPSC-derived motor neurons)) (UniProt Q496J9)
Chain of UniProt Q496J9 (Q496J9 whole entry): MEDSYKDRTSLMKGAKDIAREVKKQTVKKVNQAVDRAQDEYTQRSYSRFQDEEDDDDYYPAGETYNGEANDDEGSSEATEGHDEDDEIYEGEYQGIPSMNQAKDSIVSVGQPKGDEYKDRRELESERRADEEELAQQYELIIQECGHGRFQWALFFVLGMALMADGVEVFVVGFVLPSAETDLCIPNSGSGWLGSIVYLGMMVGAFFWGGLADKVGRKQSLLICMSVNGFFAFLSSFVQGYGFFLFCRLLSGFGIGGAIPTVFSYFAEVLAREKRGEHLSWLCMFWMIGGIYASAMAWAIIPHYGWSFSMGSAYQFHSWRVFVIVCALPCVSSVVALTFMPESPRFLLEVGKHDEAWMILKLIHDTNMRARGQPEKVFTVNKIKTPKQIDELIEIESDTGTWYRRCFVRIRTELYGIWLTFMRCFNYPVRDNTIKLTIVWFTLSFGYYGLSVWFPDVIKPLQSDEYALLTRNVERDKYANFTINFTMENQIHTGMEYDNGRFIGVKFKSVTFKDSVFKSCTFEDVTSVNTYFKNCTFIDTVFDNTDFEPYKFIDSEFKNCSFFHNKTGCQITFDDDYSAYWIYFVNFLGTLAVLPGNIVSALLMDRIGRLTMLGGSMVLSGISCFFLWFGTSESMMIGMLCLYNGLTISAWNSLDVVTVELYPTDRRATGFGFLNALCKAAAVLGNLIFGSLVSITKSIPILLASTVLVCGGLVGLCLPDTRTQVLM

Chain of UniProt Q9Z2I6 (Q9Z2I6 whole entry): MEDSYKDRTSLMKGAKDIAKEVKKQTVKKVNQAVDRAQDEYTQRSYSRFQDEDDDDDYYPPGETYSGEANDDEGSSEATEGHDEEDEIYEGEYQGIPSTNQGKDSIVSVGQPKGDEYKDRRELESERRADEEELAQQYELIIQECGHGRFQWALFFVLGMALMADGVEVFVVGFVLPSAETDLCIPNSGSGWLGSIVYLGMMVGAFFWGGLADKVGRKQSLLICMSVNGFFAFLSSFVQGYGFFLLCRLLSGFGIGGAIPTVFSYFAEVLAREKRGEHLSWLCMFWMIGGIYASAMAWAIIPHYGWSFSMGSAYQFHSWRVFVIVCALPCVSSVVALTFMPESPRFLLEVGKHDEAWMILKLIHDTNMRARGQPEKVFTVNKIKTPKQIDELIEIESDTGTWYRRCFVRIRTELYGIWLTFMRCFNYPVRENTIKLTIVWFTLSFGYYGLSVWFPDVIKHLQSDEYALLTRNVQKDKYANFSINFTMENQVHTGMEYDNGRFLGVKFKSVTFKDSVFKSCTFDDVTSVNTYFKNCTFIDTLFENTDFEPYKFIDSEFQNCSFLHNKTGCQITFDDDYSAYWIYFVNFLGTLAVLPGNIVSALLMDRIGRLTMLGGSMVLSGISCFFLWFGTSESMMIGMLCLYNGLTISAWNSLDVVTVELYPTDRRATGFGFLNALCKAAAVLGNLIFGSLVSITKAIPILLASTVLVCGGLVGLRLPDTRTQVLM

Botulinum neurotoxin subtype A1 (BoNT/A1), 150-kDa holotoxin (from UniProt P0DPI0) (natural protein)
EC50 RSC (SNAP-25 cleavage in primary rat spinal cord cells, 48 h) [1]: 1.1 pg/Well
EC50 RSC (SNAP-25 cleavage in primary rat spinal cord cells, 48 h) [2]: 1 pg/Well
EC50 MN (SNAP-25 cleavage in hiPSC derived motor neurons, 48 h) [3]: 0.07 pg/Well
